Results: the DeepSol protein solubility set

Experiment: soluble on expression in E. coli; label from the status in PepcDB or PDB records

Sequence | soluble on expression in E. coli
MSAEKSSADTAKKTLTIYSTMSTDSERDTFRKLAAAFEKEHSDIHVSLHFPGNDYENMMRVRMAANDLPDLFDTHGWGKIRYGEYTADLRDMKWTQDLDPNLNSILKNKSGKVYAYPINQAKDGLAYNRNILDRYGIAPPETMDDFIKALRTIKEKSKGSIVPFWFAGYDKSSFAQYYDQFATPLLITDPAHNEKKQLINGTFQWSKFTYLSEILKQMQKEKLINIDAVTAKKSQLIELMAQNKIAFTMQGGTLGQDVAQINPNVKVGIIPTPAIHPGDDPIWIGGERYTLAAWKDSPQLKEAKDFIAFMARPANAKQMAEATSLPSGLTNVKADIFYANDYEYYQDVKVEPYFDRLYLPNGMWDVLGTVGQELAADILAPQDISQKLGREYKRLREQSETQGAENNELEHHHHHH | soluble
MSAFQPTIKRRESTKIYVGNVPIGGDAPIAVQSMTNTRTTDVEATVAQIKSLERVGADIVRVSVPTMDAAEAFKQIKQQVNVPLVADIHFDYRIALKVAEYGVDCLRINPGNIGREDRVRAVVDCARDKNIPIRIGVNAGSLEKDLQEKYGEPTPEALLESALRHVEILDRLNFDQFKVSVKASDVFLAVESYRLLAKAIKQPLHLGITEAGGARAGAVKSAVGLGMLLAEGIGDTLRVSLAADPVEEIKVGFDILKSLRIRSRGINFIACPTCSRQEFDVIGTVNALEQRLEDIITPMDVSIIGCVVNGPGEALVSDLGVTGGNKKSGYYLDGERQKERFDNEDIVNQLEAKIRAKVARQDPKNRII | not soluble
MSLTLQQKELFQKSPLLLENGETLSPVLVGYETYGTLSASRDNCILLEHALTGTAHAAKHFEDDAPGWWDDYIGPGKTIDTDKYFLVCTNVFGGCSGTTGPSSINPKTGEPFRLQFPGFSIKDIIKVQRELLEQLGVTRIVSVIGGSMGGMQATEWAIDYADITDSIINIASPLAAGPDAIGYNLIMRMAILNDPDFNGGNYVGQPEGGLATARMVGMMTYRTSELFSKRFERFTVAESSPAAFSKEHFQIESYLQYQGDTFVERFDANSYLYLTKAIDLFDVTAPAKDDLPAFSKIKIPYLLIGITTDQLFRIHDLRRGYELLKEWDVPVTYHEVASEYGHDAFLVEKEVPKFEPLIRSFLSNLPVKSIEGHHHHHH | soluble
MPISIQQISYIHPDKEVLFSDLNFAISKGQKLGLVGNNGCGKSTLLQIIAGQLAPSSGVIVRPDDLYYIPQHFGQYDSLTIAQALQIDHKQKALHAILAGDASIENFSILNDDWNIEERSVAALDSWGLGQFPLSYPMNLLSGGEKTRVFLAGMDIHNPSVILMDEPTNHLDSSGRQRLYDWVEKWRSTLLVVSHDRTLLNLLPEICELEKHQISYYGGNYEFYKEQKTLMQEALQQRIEEKEKALRTARKVARETAERRDKQNVRGEKRNLKKGVPRIVLNGLQSKSEKSTAKLTGAHQEKAEKLTDERNQLRSSLSPTAALKTDFNNSGLHTGKILVTAEEINFGYHPDQPQLWQAPLSFQLKSGDRLRIEGGNGSGKTTLLKIITGQLQPLKGTLIQANFTYVYLNQEYSIINDRNSILEQAYAFNGRNLPEHEIKIILNRYLFPASEWDKSCRKLSGGEKMRLAFCCLMISNNMPDMFILDEPTNNLDIQSIEIITATIKNYAGTVIAISHDNYFIQEIGVEQSIFLS | not soluble
EERFGHLLHKVEWVSLGGGIHFTGEDYAVDAFCARLKAFSEKYGVQVYLEPGEAAITNSASLEVTVLDTLYNGKHLAVVDSSIEAHLLDLLIYRLNAKMAPNDGEHTYMVCGKSCLAGDIFGEYQFDRPLAIGDRLSFIDTAGYTMVKKNWFNGLKMPSIVVKQLDGSVEVVREFGFEDYVSSLS | not soluble
MTRILPCLFLVLLAAAPLLANPANPLNLKKHHGVFCDVCKALVEGGEKVGDDDLDAWLDVNIGTLCWTMLLPLHHECEEELKKVKKELKKDIENKDSPDKACKDVDLC | not soluble
LKIKMPDDIFVKKELILKDVIKGQIGYMYLPSMSSKNGSINNDLKIIGDYINTLEKHKALIIDIRGNLGGSDRYWQGIVSKLIKNDVKINGYRIYRNNNEIVKKYTNARNIKLNPVENLPASVKENAPKEIIKDFNDFEDTSYTIKSTDDSKFKGNIYLLVDRKIYSSSESFAMFCKENKFATLVGETTGGDGGCIDPVLFNLKNSGLIVRMASCMYLNKNGICDEEFKTIPEFKVKDCKRTADFKDDNCIRKALELENINY | not soluble
MGSDKIHHHHHHMPTSALDGKDTAAIQAATAEVAVYDRSNWGLIRVSDDDRLRFLHNQSTNDFQSLKPGQGCETVMVTSTARTIDLVSSYVLNDAVILLVSSSRREFLLQWLDRYIFFADKVQLTDITDETATLSIIGPGSDAVVEKLGAGEIIGQPHGNHITIDGGVVAAVGSGLASPGYTLILPVSQKQQVWQQILDSGAVELSDRAWDTLRILQGRPAPDAELTDDYNPLEVGLWQTISFSKGCYIGQETIARLNTYKGVKQHLWGIRLNAPAEIGDSINIGDEKVGKLTSYTETPDGYFGLAYIRSKAGGVGLKVQVGNSEGEVVAIPFVSHEYP | not soluble
MAATRAYHHGDLRRSVLSAALEVIRSDGVAAISLRDLARRAEVSHAAPAHHFKDKAGLLTAIATEGFELLAAALTAVPAGTTHRLREMGVRYVEFALDHPAHFDVMFRPQLLHVGDPELTAARERASRALASGVEDLPDMRAGLDARRAGLTAWSLAHGFATLQLGGSLPPLDDDPAEAFRALVADRLVVRLP | not soluble
EIDGTTYVDGGLFKDLPASVIREDCRYLIGVHLNPKEPSDYKKSLFGIAERCFGYIFRANSLPDRKLCDLLIESREIIKFKPFHVEPAEEIAAFGYKMAKQVLKTTSITRNP | not soluble
MSLQDTWGGKMNTLGDRVLLCNDKRSLPAAAVATPFLFESMLFSVCTRGYARLLIDSREIEVKEGELLVVMPRKTIEVIESSCFRAFHLCLDKEILALSAIRISGFISIINKLHSNEPFRPERMEKDFLTATLDLIRNALQNGGRHQEEIVIYLISSLFLFLDDMIADEVEKDCKHTRSETICRDFLLLVSEHHKEQHTVKFYADRLCLSSKHLALTIKTVMGQSASKVINSFIIQQAKSLLRYTDKTVQEIGYELNFSTQSFFGKYFKQHTGMSPGEYRSQEARNRQSEES | not soluble
MNEQIRTILAEDGTKTSKIRKLLLLGLTHREIADLVTRGNRGFVWNVYKRMRDEGLIVSAGTPTATTTPELDYSFRRKFGVEIEAYNCTCQRLVRELTEAGIEVASERYNHDLRPHWKLVTDSSLNGNDTFELVSPILEGEDGLEKLERVCWVLDSCNVKINGSCGLHVHMNAEDFNITTWRNLLLSYKHAEAEIDKFMPASRRGGSNTYCGSLIQFPDERIRSARNIRELQGLFPSRYMKVNLQAYSRHRTVEFRQHSGTISFTKIENWVCFLDRMITFASVGSLPAGIRLEDFPFLGEKQKLYYKLRTKKLAV | not soluble
MSDSSNQLMPLSLSAPGVNLGAYISTVNQIPILTAEQEKELAERYYYDQDLDAAKMLVMSHLRFVVHIARSYAGYGLPQGDLIQEGNLGLMKAVKRFDPNMGVRLVSFAVHWIKAEIHEYVIRNWRIVKIATTKAQRKLFFNLRSLKKSSKKLTLEEAQSIANDLNVTPEQVLEMEGRLTAYDAAFETQGDDDDDSSTHVAPALYLEDNRYDPARLAENDDYEEQSSTALHEAMNQLDDRSRNILQRRWLDDDKSTLHELAAEYNVSAERIRQLEKNAMEKIKVAMSAG | not soluble
HMDIRTITSSDYEMVTSVLNEWWGGRQLKEKLPRLFFEHFQDTSFITSEHNSMTGFLIGFQSQSDPETAYIHFSGVHPDFRKMQIGKQLYDVFIETVKQRGCTRVKCVTSPVNKVSIAYHTKLGFDIEKGTKTVNGISVFANYDGPGQDRVLFVKNI | soluble
VFPSNATFGMGDRVRKKSGAAWQGQIVGWYCTNLTPEGYAVESEAHPGSVHIYPVAALERIN | soluble
MTVYHFVGIKGTGMSPLAQILHDNGYTVQGSDIEKFIFTQTALEKRNITILPFSAENIKPGMTVIAGNAFPDTHPEIEKAMSEGIPVIRYHKFLGDYMKKFTSVAVTGAHGKTSTTGLLAHVIQNAKPTSFLIGDGTGQGNENSEYFVFEACEYRRHFLSYQPDYAIMTNIDFDHPDYFSSIDDVFDAFQEMALQVNKGIIACGDDEHLPKIHANVPVVYYGTGEENDFQARNIVKSTEGTTFDVFVRNTFYDTFYIPAYGHHNVLNSLAVIALCHYEEIDSSIIKHALKSFGGVKRRFNEKQLGDQVLIDDYAHHPTEIKVTIEAARQKYPDREIVAVFQPHTFTRTQQFLDEFAESLSGADCVYLCDIFGSARENAGKLTIGDLQGKIHNAKLIEEDDTSVLKAHDKAVLIFMGAGDIQKYMRAYENVMA | not soluble
MFDRYESGERAVLVHINFTQEGEWEDLAEFEMLVSSAGVETLQVVTGSRQSPHPKYYVGEGKAQEIATTVHLTGAEIVIFNHSLSPAQERNLEALCKCRVLDRTGLILDIFAQRARTHEGKLQVELAQLRHISTRLIRGWTHLERQKGGIGLRGPGETQLETDRRLLRERIKAILRRLEKVAKQREQGRRARNRAEIPTISLVGYTNAGKSTLFNRITEAGVYAADQLFATLDPTLRKMELADVGPAILADTVGFIRHLPHDLVAAFKATLQETQEADILLHVVDASDERFRENIQAVHEVLEEIDAHEVPTLVVMNKIDNLESQTPRIERDEEGVPRAVWVSAMEGLGIELLFDALTERLASQMVEHQLRIPPQYQGRFRSTFFQMKCIQREEYDQDGNLLIDIRMQQVDWSRLEKREGAVLTDFIVTLEHHHHHH | not soluble
MTNEADKFVVDVIYALPTQQKVISVSVLPGTSAIDIVRQSNMVSFFPEIELETVKLGVFSNVVKHDQVILPGQRVEIYRPLIADPKDVRRRRADKAKDEGRANKVTGGRVS | soluble
MKLLHTADLHMDRSFEGLTGIPTALAKRLREANQQLLMNIVTVAIREAVDLVIFAGDTFHQSQTSISMQAQLMAALEQLKQAEIPVILTFGNHDYYKKDRYWFSFPDNVFLFEKEMVETLYFETKAGEQVAVSGFSYEHPWIDENKALEFPIKQAESDIHIGIYHGDTSRKAQQNYAPFTWKDLKATGYNYWALGHIHQPQIVSEQPLIVYPGTPQGHTKKEQSLQGVAVVTLSQNQATVQFEKVAEIDWTNEEVSLAQCRDTQSVLSYLETSLLTKWQAHQQQQLMALTLKETQHLDVTVVQAIVNGELLSYLQQQLLQKTQGDFFVYRLILQAEEPTKEPIYLAASPNLLTALEKTYLDPVIFEDTTKELLRYPEFAGIFSMDEQWRLESLRLAHEQINEDFTIQEDPL | not soluble
MSLELKVSLDNITMTAYIKSKKYLAMKQLIETHLAITVQTAMTDMFRATTGDGIHVVLHMNYDKQKGQDRKARPFRLEFNPNKLRLVDSEIIDTIIPFLEDISISRADLAFDLFEVDCSEFVLEKKGRPTATKEFRSSTGTLETKYLGAPRSEKQVRLYNKKKEQLQNGTDKDKDFASQFKHWWRLEFQLRSRSIDEIFEVIDTIIFKPFNLKGLSIETQIYLTALIHDKNIWKKLHRNTRARYKKILETHQTSDTDYLGLLKDLLKHERPRLENQLAYYGGRIDKNSFQPFCEGHHHHHH | soluble
MVLRAKLLSWQEGVGSKTFEFDVDVEPRSYVISKVSQLSPIIASEDLTVCEGEVAVVGTRVIEIPENTVVRPVAAISHANGFVADVIECGAPGMVEDEKCINHAVFIPTRSGDVKEGDLLGMLRINFVRTGLLSRVILEHHHHHH | not soluble
MGHHHHHHSHMAERCFQQAIAFQASCAAVEACFQDLELMHRWLNPLLRCRPEGDWNLDRGSRNRFQIQIPLIYPSLECVVCDRAEGLIVWQFEGFFQGTDTWRWWQEGEHTQLDNCFRFRIAKPWVAWGFDRVAAGVTQRDMQAQLQRLKAIAETLPVASTVTDNLP | not soluble
